Here are results for six sequences from the supplement of paper PMC5998384.

Data set [1] relates to HeLa Kyoto. The experiment in a line: melting temperature (median over replicates), in situ; higher = more thermally stable.
For data set [2], the system named is HeLa Kyoto. The experiment in a line: thermal stability score vs G1/S (z-score of summed log2 fold changes over temperatures); higher = more thermally stable than in G1/S.
For data set [3], the system named is HeLa Kyoto. The experiment in a line: solubility in G1/S (NP-40 vs SDS abundance) (log2 ratio); higher = more soluble. To be noted: cell cycle stage: G1/S.
In data set [4] the test system is HeLa Kyoto. In words: solubility change mitosis vs G1/S (difference of NP-40 vs SDS log2 ratios) (log2 ratio difference); higher = more soluble in mitosis.
Where [5] appears, read: cell cycle stage: early G1 (4.5 h after nocodazole release).
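For melting temperature (median over replicates), in situ in this document: HeLa Kyoto cells synchronized by double thymidine or nocodazole block, proteins quantified by TMT10plex mass spectrometry, three independent biological replicates.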
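For solubility change mitosis vs G1/S (difference of NP-40 vs SDS log2 ratios) in this document: synchronized HeLa Kyoto cells (double thymidine block for G1/S, nocodazole release for mitosis), protein amounts in NP-40 versus SDS lysates quantified by mass spectrometry, three biological replicates.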
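For solubility in G1/S (NP-40 vs SDS abundance) in this document: HeLa Kyoto cells arrested at G1/S by double thymidine block, proteins quantified by TMT10plex mass spectrometry in mild NP-40 versus SDS extracts, three biological replicates.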
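For thermal stability score vs G1/S (z-score of summed log2 fold changes over temperatures) in this document: synchronized HeLa Kyoto cells, proteins quantified by TMT10plex mass spectrometry, three biological replicates, mitosis taken 0.5 h after nocodazole release, G1/S directly after double thymidine block.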

For “MGRLASRPLLLALLSLALCRGRVVRVPTATLVRVVGTELVIPCNVSDYDGPSEQNFDWSFSSLGSSFVELASTWEVGFPAQLYQERLQRGEILLRRTANDAVELHIKNVQPSDQGHYKCSTPSTDATVQGNYEDTVQVKVLADSLHVGPSARPPPSLSLREGEPFELRCTAASASPLHTHLALLWEVHRGPARRSVLALTHEGRFHPGLGYEQRYHSGDVRLDTVGSDAYRLSVSRALSADQGSYRCIVSEWIAEQGNWQEIQEKAVEVATVVIQPSVLRAAVPKNVSVAEGKELDLTCNITTDRADDVRPEVTWSFSRMPDSTLPGSRVLARLDRDSLVHSSPHVALSHVDARSYHLLVRDVSKENSGYYYCHVSLWAPGHNRSWHKVAEAVSSPAGVGVTWLEPDYQVYLNASKVPGFADDPTELACRVVDTKSGEANVRFTVSWYYRMNRRSDNVVTSELLAVMDGDWTLKYGERSKQRAQDGDFIFSKEHTDTFNFRIQRTTEEDRGNYYCVVSAWTKQRNNSWVKSKDVFSKPVNIFWALEDSVLVVKARQPKPFFAAGNTFEMTCKVSSKNIKSPRYSVLIMAEKPVGDLSSPNETKYIISLDQDSVVKLENWTDASRVDGVVLEKVQEDEFRYRMYQTQVSDAGLYRCMVTAWSPVRGSLWREAATSLSNPIEIDFQTSGPIFNASVHSDTPSVIRGDLIKLFCIITVEGAALDPDDMAFDVSWFAVHSFGLDKAPVLLSSLDRKGIVTTSRRDWKSDLSLERVSVLEFLLQVHGSEDQDFGNYYCSVTPWVKSPTGSWQKEAEIHSKPVFITVKMDVLNAFKYPLLIGVGLSTVIGLLSCLIGYCSSHWCCKKEVQETRRERRRLMSMEMD [PTGFRN]”, the melting temperature with HeLa Kyoto [1] (cell cycle stage: G1/S) was determined as 56.7 °C; in the data set with HeLa Kyoto [1] (cell cycle stage: mitosis), 57.1 °C. Further, the thermal stability score was -2.55 with HeLa Kyoto [2] (setting [5]) and -2.42 in the data set with HeLa Kyoto [2] (cell cycle stage: mitosis). Moreover, the “solubility in G1/S (log2)” value in the data set with HeLa Kyoto [3] came to 0.0152. Also, the “solubility change mitosis (log2)” value in the data set with HeLa Kyoto [4] is -0.133.
“MGRLDGKVIILTAAAQGIGQAAALAFAREGAKVIATDINESKLQELEKYPGIQTRVLDVTKKKQIDQFANEVERLDVLFNVAGFVHHGTVLDCEEKDWDFSMNLNVRSMYLMIKAFLPKMLAQKSGNIINMSSVASSVKGVVNRCVYSTTKAAVIGLTKSVAADFIQQGIRCNCVCPGTVDTPSLQERIQARGNPEEARNDFLKRQKTGRFATAEEIAMLCVYLASDESAYVTGNPVIIDGGWSL [BDH2]”: the melting temperature with HeLa Kyoto [1] (cell cycle stage: G1/S) was found to be 51.4 °C; in the data set on HeLa Kyoto [1] (cell cycle stage: mitosis) it was 51.3 °C. In addition, the thermal stability score is 0.0249 in the data set with HeLa Kyoto [2] (setting [5]) and -0.29 with HeLa Kyoto [2] (cell cycle stage: mitosis). Also, the “solubility in G1/S (log2)” value in the data set on HeLa Kyoto [3] worked out at 0.0418. The “solubility change mitosis (log2)” value in the data set on HeLa Kyoto [4] is -0.101.
With “MGRRALLLLLLSFLAPWATIALRPALRALGSLHLPTNPTSLPAVAKNYSVLYFQQKVDHFGFNTVKTFNQRYLVADKYWKKNGGSILFYTGNEGDIIWFCNNTGFMWDVAEELKAMLVFAEHRYYGESLPFGDNSFKDSRHLNFLTSEQALADFAELIKHLKRTIPGAENQPVIAIGGSYGGMLAAWFRMKYPHMVVGALAASAPIWQFEDLVPCGVFMKIVTTDFRKSGPHCSESIHRSWDAINRLSNTGSGLQWLTGALHLCSPLTSQDIQHLKDWISETWVNLAMVDYPYASNFLQPLPAWPIKVVCQYLKNPNVSDSLLLQNIFQALNVYYNYSGQVKCLNISETATSSLGTLGWSYQACTEVVMPFCTNGVDDMFEPHSWNLKELSDDCFQQWGVRPRPSWITTMYGGKNISSHTNIVFSNGELDPWSGGGVTKDITDTLVAVTISEGAHHLDLRTKNALDPMSVLLARSLEVRHMKNWIRDFYDSAGKQH [PRCP]”, the melting temperature was 58.5 °C in the data set on HeLa Kyoto [1] (cell cycle stage: G1/S) and 54.1 °C in the data set on HeLa Kyoto [1] (cell cycle stage: mitosis). Also, the values for the thermal stability score with HeLa Kyoto [2] (setting [5]) and in the data set on HeLa Kyoto [2] (cell cycle stage: mitosis) were -0.942 and -2.23, respectively. In the data set on HeLa Kyoto [3], the “solubility in G1/S (log2)” value came out at 0.0413. Moreover, the “solubility change mitosis (log2)” value with HeLa Kyoto [4] is -0.246.
For “MGRRSSDTEEESRSKRKKKHRRRSSSSSSSDSRTYSRKKGGRKSRSKSRSWSRDLQPRSHSYDRRRRHRSSSSSSYGSRRKRSRSRSRGRGKSYRVQRSRSKSRTRRSRSRPRLRSHSRSSERSSHRRTRSRSRDRERRKGRDKEKREKEKDKGKDKELHNIKRGESGNIKAGLEHLPPAEQAKARLQLVLEAAAKADEALKAKERNEEEAKRRKEEDQATLVEQVKRVKEIEAIESDSFVQQTFRSSKEVKKSVEPSEVKQATSTSGPASAVADPPSTEKEIDPTSIPTAIKYQDDNSLAHPNLFIEKADAEEKWFKRLIALRQERLMGSPVA [RSRC1]”, the figures for the melting temperature with HeLa Kyoto [1] (cell cycle stage: G1/S) and in the data set on HeLa Kyoto [1] (cell cycle stage: mitosis) were 51.5 °C and 50.4 °C, respectively. In addition, the thermal stability score in the data set with HeLa Kyoto [2] (setting [5]) was -1.05; with HeLa Kyoto [2] (cell cycle stage: mitosis), -4.78. For the same sequence, the “solubility in G1/S (log2)” value in the data set on HeLa Kyoto [3] is -0.945. For the same sequence, the “solubility change mitosis (log2)” value with HeLa Kyoto [4] was determined as 0.261.
As to “MGRRSTSSTKSGKFMNPTDQARKEARKRELKKNKKQRMMVRAAVLKMKDPKQIIRDMEKLDEMEFNPVQQPQLNEKVLKDKRKKLRETFERILRLYEKENPDIYKELRKLEVEYEQKRAQLSQYFDAVKNAQHVEVESIPLPDMPHAPSNILIQDIPLPGAQPPSILKKTSAYGPPTRAVSILPLLGHGVPRLPPGRKPPGPPPGPPPPQVVQMYGRKVGFALDLPPRRRDEDMLYSPELAQRGHDDDVSSTSEDDGYPEDMDQDKHDDSTDDSDTDKSDGESDGDEFVHRDNGERDNNEEKKSGLSVRFADMPGKSRKKKKNMKELTPLQAMMLRMAGQEIPEEGREVEEFSEDDDEDDSDDSEAEKQSQKQHKEESHSDGTSTASSQQQAPPQSVPPSQIQAPPMPGPPPLGPPPAPPLRPPGPPTGLPPGPPPGAPPFLRPPGMPGLRGPLPRLLPPGPPPGRPPGPPPGPPPGLPPGPPPRGPPPRLPPPAPPGIPPPRPGMMRPPLVPPLGPAPPGLFPPAPLPNPGVLSAPPNLIQRPKADDTSAATIEKKATATISAKPQITNPKAEITRFVPTALRVRRENKGATAAPQRKSEDDSAVPLAKAAPKSGPSVPVSVQTKDDVYEAFMKEMEGLL [WBP11]”, the melting temperature in the data set with HeLa Kyoto [1] (cell cycle stage: G1/S) amounted to 55.4 °C; in the data set on HeLa Kyoto [1] (cell cycle stage: mitosis), 53.8 °C. The thermal stability score was -1.77 in the data set on HeLa Kyoto [2] (setting [5]) and -3.87 in the data set with HeLa Kyoto [2] (cell cycle stage: mitosis). The “solubility in G1/S (log2)” value in the data set on HeLa Kyoto [3] came out at 0.135. Also, the “solubility change mitosis (log2)” value with HeLa Kyoto [4] is 0.186.
Take “MGRTVVVLGGGISGLAASYHLSRAPCPPKVVLVESSERLGGWIRSVRGPNGAIFELGPRGIRPAGALGARTLLLVSELGLDSEVLPVRGDHPAAQNRFLYVGGALHALPTGLRGLLRPSPPFSKPLFWAGLRELTKPRGKEPDETVHSFAQRRLGPEVASLAMDSLCRGVFAGNSRELSIRSCFPSLFQAEQTHRSILLGLLLGAGRTPQPDSALIRQALAERWSQWSLRGGLEMLPQALETHLTSRGVSVLRGQPVCGLSLQAEGRWKVSLRDSSLEADHVISAIPASVLSELLPAEAAPLARALSAITAVSVAVVNLQYQGAHLPVQGFGHLVPSSEDPGVLGIVYDSVAFPEQDGSPPGLRVTVMLGGSWLQTLEASGCVLSQELFQQRAQEAAATQLGLKEMPSHCLVHLHKNCIPQYTLGHWQKLESARQFLTAHRLPLTLAGASYEGVAVNDCIESGRQAAVSVLGTEPNS [PPOX]”: the melting temperature turned out to be 53.3 °C in the data set on HeLa Kyoto [1] (cell cycle stage: G1/S) and 54 °C in the data set on HeLa Kyoto [1] (cell cycle stage: mitosis). Also, the thermal stability score in the data set on HeLa Kyoto [2] (setting [5]) was 0.0829; in the data set on HeLa Kyoto [2] (cell cycle stage: mitosis), -0.0946. The “solubility in G1/S (log2)” value in the data set with HeLa Kyoto [3] stood at 0.0337. Besides, the “solubility change mitosis (log2)” value in the data set with HeLa Kyoto [4] was -0.0988.
